Results on one sequence are retold here after patent US20120094271A1, “SELECTING FOR COOPERATIVELY INTERACTING MOLECULES” (Arizona Board of Regents for and on behalf of Arizona State …, priority 2008, published 2012).

Data set [1] can be described thus: isoelectric point (pI) of peptides. In kind it is physicochemical.
Data set [2] concerns the target Beta-galactosidase (β-gal) (Escherichia coli, UniProt P00722). The conditions noted are these: ~12 uM peptide, ~3 nM β-gal. The method, then:
(§1) Beta-galactosidase (β-gal) (˜3 nM, Alexa647 labeled, the target) was preincubated with a solution containing ˜12 uM of the peptide “[…]” (the ligand). […] The complex between β-gal and the peptide complex was incubated with a […] 10,000 random sequence peptides (the “test molecules”) bound to the surface of a glass slide in an ordered fashion. The incubation took place for two hours and the binding pattern of this was compared to the binding pattern using only the labeled enzyme and no ligand.

In data set [3] the target is β-gal enzyme (Escherichia coli, UniProt P00722). Particulars: ~12 uM peptide. The procedure: as §1
Sequence of β-gal enzyme (P00722 2-1024): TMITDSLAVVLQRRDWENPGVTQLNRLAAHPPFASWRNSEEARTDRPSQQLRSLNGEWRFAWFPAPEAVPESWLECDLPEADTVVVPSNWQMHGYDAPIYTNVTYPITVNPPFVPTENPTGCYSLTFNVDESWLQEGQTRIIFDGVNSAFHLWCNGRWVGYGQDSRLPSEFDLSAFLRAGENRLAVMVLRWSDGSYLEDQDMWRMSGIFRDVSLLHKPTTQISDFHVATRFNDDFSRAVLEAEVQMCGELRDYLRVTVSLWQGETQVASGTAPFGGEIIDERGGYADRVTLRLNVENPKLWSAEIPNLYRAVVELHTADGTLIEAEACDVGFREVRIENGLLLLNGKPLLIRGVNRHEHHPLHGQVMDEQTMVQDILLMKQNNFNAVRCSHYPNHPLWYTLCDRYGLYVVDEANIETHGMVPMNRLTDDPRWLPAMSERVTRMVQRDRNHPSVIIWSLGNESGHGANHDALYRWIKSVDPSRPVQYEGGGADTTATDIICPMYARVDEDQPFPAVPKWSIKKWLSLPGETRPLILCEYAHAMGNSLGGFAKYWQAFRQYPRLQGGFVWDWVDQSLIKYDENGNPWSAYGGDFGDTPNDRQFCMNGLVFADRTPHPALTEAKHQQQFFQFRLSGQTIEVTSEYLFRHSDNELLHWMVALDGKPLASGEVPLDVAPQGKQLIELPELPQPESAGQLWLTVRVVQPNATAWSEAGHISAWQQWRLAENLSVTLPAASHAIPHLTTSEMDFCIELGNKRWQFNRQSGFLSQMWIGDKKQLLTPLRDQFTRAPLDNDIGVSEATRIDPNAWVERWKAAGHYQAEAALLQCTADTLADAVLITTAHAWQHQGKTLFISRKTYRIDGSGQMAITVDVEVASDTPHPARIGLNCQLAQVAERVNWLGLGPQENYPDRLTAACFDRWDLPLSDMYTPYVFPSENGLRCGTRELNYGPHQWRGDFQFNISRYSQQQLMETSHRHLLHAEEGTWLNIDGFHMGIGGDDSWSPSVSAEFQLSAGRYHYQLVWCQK

Sequence of Beta-galactosidase (β-gal) (P00722 2-1024): as above

In the case of RVFKRYKRWLHVSRYYFGSC, the “isoelectric point (pI)” value in data set [1] stood at 10.6. The same sequence came in with a β-gal activity inhibited in data set [2] of 95%. Besides, in data set [3], the “binding to the β-gal enzyme” value was “binds strongly”.
